The record followed here is patent publication US20210285965A1 (SEATTLE CHILDREN S HOSPITAL D B A SEATTLE CHILDREN S …, published 2021).

What all share (test): immunoaffinity peptide capture on mAb-Protein G magnetic beads, read by SRM-MS (immuno-SRM); ELISA screening
For orientation: ELISA stands for enzyme-linked immunosorbent assay.

For test [1], the target named is T1, CYBB 509-521 signature peptide (TLYGRPNWDNEFK).
T1 construct: Endogenous tryptic peptide of CYBB from digested dried blood spots of patients and normal controls
T1 peptide: TLYGRPNWDNEFK

For test [2], the target named is T2, DOCK8 1272-1283 signature peptide (TSGIVLSSLPYK).
T2 construct: Endogenous tryptic peptide of DOCK8 from digested dried blood spots of patients and normal controls
T2 peptide: TSGIVLSSLPYK

The target of test [3] is T3, CD56 122-130 signature peptide (NAPTPQEFR).
T3 construct: Endogenous tryptic peptide of CD56 (NCAM) from digested dried blood spots of patients and normal controls
T3 peptide: NAPTPQEFR

The target of test [4] is T4, SH2D1A 19-32 signature peptide (LLLATGLDGSYLLR).
T4 construct: Tryptic peptide of SH2D1A (SAP); also called SAP
T4 peptide: LLLATGLDGSYLLR

For test [5], the target named is T5, CD42 154-165 signature peptide (TLPPGLLTPTPK).
T5 construct: Endogenous tryptic peptide of CD42 (glycoprotein Ib) from digested dried blood spots of patients and normal controls
T5 peptide: TLPPGLLTPTPK

The target of test [6] is T6, ADA 93-101 signature peptide (EGVVYVEVR) (human).
T6 peptide: EGVVYVEVR

The target in test [7] is T7, ATM 1561-1572 signature peptide (LLDPFPDHVVFK).
T7 construct: Endogenous tryptic peptide of ATM from digested dried blood spots of normal controls
T7 peptide: LLDPFPDHVVFK

In test [8] the target is T8, CD42 128-137 signature peptide (LTSLPLGALR).
T8 construct: Endogenous tryptic peptide of CD42 (glycoprotein Ib) from digested dried blood spots of patients and normal controls
T8 peptide: LTSLPLGALR

B1: anti-CYBB 509 monoclonal antibody (antibody, V domains shown)
VH: QSLEESGGGLVKPGASLTLTCTASGFSFSRSYWICWVRQAPGKGLEWLGCIYAGSSGSTYYASWAKGRFTISKTSSTTVTLQMTSLTAADTATYFCARGNNNIIILDLWGPGILVTVSS
VL: AVLTQTPSPVSAAVGGTVTISCQASQSVYNNNALSWYQQKPGQPPKLLIYDASDLAPGVPSRFSGSGSGTQFTLTISDVQCDDAATYYCLGGYSVSSDNAFGGGTEVVVNG
notes: Full heavy and light chains without leader; also called clone EB0611C-1E12-H2 / EB0611C-1E12-K2
As to B1, the binding result in test [1] is given as “binds”.

B2: anti-DOCK8 1272 monoclonal antibody (antibody, V domains shown)
VH: EVQLQQSGTVLARPGASVKMSCKASGYTFTSYWMHWVKQRPGQGLEWIGAIFPGNSNTRYNQKFKGKAKLTAVTSASTAYMELSSLTNEDSAVYYCADDNAFDYWGQGTTLTVSS
VL: QIVLTQSPAIMSASPGEKVTMTCSASSSVSSRYLHWYQQKSGASPKLWIYGTSNLSSGVPDRFSGSGSGTSYSLTISSVETEDAATYYCQQYHSDPFTFGTGTKLEIK
notes: Hybridoma antibody; also called Hybridoma SJSH5-1C2-2E
With B2, in test [2], the binding result is “binds”.

B3: anti-CD56 122 monoclonal antibody (antibody, V domains shown)
VH: QSLEESGGDLVKPGASLTLTCKASGLDFSSNYYMCWVRQAPGKGLEWIACIYSSSLNTWYASWAKGRFTISKSTSLHTVTLQMTSLTAADTATYFCTRGGGVYVGADYGFYFYLWGPGTLVTVSS
VL: DIVMTQTPSSVEAPVGGTVTIKCQASQSIDSWCAWYQQKPGQPPKLLIYKASTLESGVPSRFKGSGSGTEFTLTISDLECADAATYFCQSYYPTTGSDNAFGGGTEVVVKG
notes: Full heavy and light chains without leader; also called clone EB0608C-3H4-H2 / EB0608C-3H4-K2
Turning to B3, the binding result in test [3] is recorded as “binds”.

B4: anti-SH2D1A (SAP) 19 monoclonal antibody (antibody, V domains shown)
VH: QSLEESGGRLVTPGGTLTLTCTVSGFSLSSYDMSWVRQAPGKGLEWIGFGNTGGSTYYASWAKGRFTISRTSTTVDLRMTSLTAADTATYFCTRGAPGWITTNMWGPGTLVTVSL
VL: QVLTQTPSPVSAAVGGTVTISCQSSQSVYRNKCLAWYQQKPGQPPKLLIYKASTLASGVPSRFSGSGSGTQFTFTISDLECDDSATYYCVGYYNTNTNTTTFGGGTEVVVKG
notes: Full heavy and light chains without leader; also called Anti-SH2D1A 19; clone EB0612B-2F4-H1 / EB0612B-2F4-K1
On to B4, for which, in test [4], the binding result is reported as “binds”.

B5: anti-CD42 154 monoclonal antibody (antibody, V domains shown)
VH: EVQLQQSGPELVKPGASVKMSCKASGYTFTGYNMHWVKQSHGKSLEWIGDINPKTGENSYNQKFKGKATLTISKSSSTAYMELRSLTSEDSAVYYCVRWGVYYLDHWGQGTTLTVSS
VL: DIVMTQAAFSNPVTLGTSASISCRSTKSLLYSDGITYLYWYLQRPGQSPQLLIYRMSDLASGVPDRFSGSGSGTDFTLRISRVEAEDVGVYYCAQMVEFPPTFGGGTKLEIK
notes: Hybridoma antibody; also called Hybridoma SJSH4-1H11c
Take B5: the binding result in test [5] is reported as “binds”.

B6: anti-ADA 93 monoclonal antibody (antibody, V domains shown)
VH: QEQLEESGGDLVKPGSSLTLTCTASGFSFTNSDWECWVRQAPGKGLEWIACIYGDSRSGYYASWAKGRFTISKTSSTTVTLQMTTLTAADTATYFCARNLGSLWGPGTLVTVSS
VL: QVLTQTPSSVSAAVGGTVTINCQSSQNVVFNNRLAWFQQKPGQPPKLLIYQASTLASGVPPRFKGSGSGTQFTLTISDLECDDAATYYCLGSYDCSSTDCNTFGGGTEVVVKG
notes: Full heavy and light chains without leader; also called clone EB0608A-3C12-H2 / EB0608A-3C12-K2
For B6, the binding result in test [6] is “binds”.

B7: anti-ATM 1561 monoclonal antibody (antibody, V domains shown)
VH: QEQLVESGGGLVQPGGSLTLTCKASGFDFSSGGMCWVRQAPGKGLEWIGCIVNGDGSTYFATWAKGRFTITRTSSTTVTLQMTSLTAADTATYFCWRYWALWGPGTLVTVSS
VL: IVMTQTPSSKSVPVGGTVTINCQASESLYNNNRLAWFQQKPGQPPKLLIYSASTLASGVPDRFSGSGSGTQFTLTISDVVCDDAATYYCVGGRSRVTDGIAFGGGTEAVVKG
notes: Full heavy and light chains without leader; also called clone EB0608D-4A10-H4 / EB0608D-4A10-K1
With B7, the binding result in test [7] is “binds”.

B8: anti-CD42 128 monoclonal antibody (antibody, V domains shown)
VH: QAYLQQSGAVLVRPGASVKMSCKASGYTFSSYNIHWVKQTPRQGLEWIGGIYPGNGDTSYNKKFKDKATLTVDKSSNTAYMHLSSLTSEDSAVFFCASDGTRYWGQGTTLTVSS
VL: EVVMTQTPLTLSVTIGQAVSISCTSSQSLLASDGKTYLNWLLQRPGQSPKRLIYLVSKLDSGVPDRFTGSGSGTDFTLKISRVEADDLGVYCCWQGAHSPLTFGAGTRLELK
notes: Hybridoma antibody; also called Hybridoma SJSH4 3B8-1b
As for B8, the binding result in test [8] was “binds”.
